Experimental data reported in the DeepSol protein solubility set.

test: soluble on expression in E. coli; label from the status in PepcDB or PDB records

Soluble on expression in E. coli, soluble:
MSTPGTLHIVATPIGNLGDLSPRAQHILRTVTMICAEDTRHTRQLLAHFGIERPLLALHAHNEDTLAERIITRLISGASLALVSDAGTPLISDPGFLLVRAARAAGIRVTPVPGPSALIAALSVSGLPSNRFTFEGFLPAKPTARRDRLTHLAHEPRTLIFYEASHRIAECLTDLATIFGSMRAAVVARELTKIFETVLDGTLATLQTQVANDDNQRKGEFVIIVQGAADQDAAKITEGRRVYALLKEHLPPSSAAKLAAEITGAPRKALYGG, MSTPRPSLTLTLLQAREAAMSFFRPSLNQHGLTEQQWRVIRILRQQGEMESYQLANQACILRPSMTGVLARLERDGIVRRWKAPKDQRRVYVNLTEKGQQCFVSMSGDMEKNYQRIQERFGEEKLAQLLELLNELKKIKP

Soluble on expression in E. coli, not soluble:
MSTKRKIVVSSDSDDDMPFTQEKQKKAATPAKKRTKPVVLTDDDEEEENAPQKKTAPKRSRKQEKEESDITSDEDELVRGTDEKKKRKGGKKELPVGQKTLDYMFKPSSSSSKRDDPKKKVEKTLVNPADFFKNSPAPSASKLPKVAPKTVEKPKTPAKKPVEISPSTKENTKTKKVSDDEFVDSDDSFDTFTPITVKKKTPEKRKETPKKKELPSVKKEFPKKQSIPVKKEKETPQKKALSVKKDPPKVTSESSSSSQVSTSSVVFQPKPSGPPPALSWVDKYKPKRMGELVGQNGDKSPINKLLEWIKDWAKHNLGEGAKIKKPKPAPWMSSQDGTSFKAALLSGSPGVGKTTCAYMACQQLGLQLVEMNASDVRSKKHLEAKIGELSGSHQIEQFFGAKKCAPQDNQKVHHILIMDEVDGMSGNEDRAGISELIQIIKESKIPIICICNDRQHPKIRTLANYCYDLRFPKPRVETIRSRMMTICSQEKMKIGKEELDEIIELSGHDVRQTIYNLQMRSKGVGAKINQKDMAVDAFSAARRLLDSRTTLMEKQEMFFTDYGIMPLFVQDNYLNMKNEKHSPIQAIRGIRKAADFISLGDLIDRQIRGGGSWKLLNEQSMISAALPAIATGGHLKAMIQFPSWLGKNSTAGKRKRLLQQLVQHTHLKVSAGTHSFATDYAPMLRQKITKPLLEHEADGIPDVISTMTEYDLIKDDTEALTEIVAWPGKIDPASKILSKVKASLTRTLNKTGRMLPYSMDSVSKGKKRGVNSIGIEMDEEGNLVEKFEDEDGESDNEDNEEKTTDVVIKVRTGGGAGASKSARGGRGGGRARGGRGSKK, MSTLAPLFLAKHPDGEERQVIRPNVWETSCADTETLSIFHIEGMADPDLLCRVLNLFAVQSFTPERVRADREDHKIRLLLTFPGLSQHRASVIAEKLRSLVTVLAVRLEFSPHAGKVRPSVSEPLLASVV, MSTPPAAPLRIALVGDHDPHITAHRAIPLALRLAGEALGLEIAFDWLASDRLPAEPALERYDGFWCVPGSPYRDADAVLRLIAHARGRRRPFLGTCAGFQHTILEFARNALGWQAATHGEEHPHSDQAVIAALPCALLEAREDVRLLRGSRLALAYAADWIEADYHCRYAIAPRFAAELTGGALRASAWSADGAIRAVELEQHPFFVATLFQPERAALAGVLPPLPKAFVEACRTQRRDHPRRGPTPYYAVIFSSHRSAVDDGYAEAAERMLELASRQPGYLGVESVRGANGFGITVSYWDSEAAIRAWSRHAEHRDAQARGRHDWYAGFSARIARVEREYAFPAQPDTAQSPASS, MSTPRIVVGVSGGVDSSVAAWKLAQQGEPIAGLFMQNWADDGSGDCRAEDDRRDAVAVCGVLGIPFHFRDFSGEYWSDVFEHFLAEYAAGRTPNPDVLCNREVKFKHFLDAAQALGAERIATGHYAQVAHRGGRWRLLRGADRGKDQSYFLHQLGQTQLAATLFPIGDLEKSTLRRIAQDAGLPTHAKKDSTGICFIGERDFREFLGRYLPARTGEIRDPQGQRIAEHPGVFYFTLGQREGLNIGGVRGRAAAPWYVVGKDVANNVLYVDQDRDSPLLQSRWLQSEQAHWVTGAPPARRFSCTAQTRYRQPDESCTVDVQDDGSVQVRFERPQRAVTPGQSLVLYDGEECLGGAVIAATDAPLERQLAGSSFSSEVVALEHHHHHH, MSTPSLYEMLTFSFSGELPLEQISERDQLILSVMDNMQRIINCRAGTLAHLPDYGLPDLSLIHQGMAAGIHGLMRQIEETLLRYEPRLSQIQVELLPQPRPGHLNYLIHAQLPDTGWIRFDGVFSPEGRIVLRHLKQQERAY, MSTPVDLTEGLDGAKLAVTVLMIRDSPTGLEVYVQERVSSMPTFPNATVFPGGGVDPRDFELDGVESEHETFGGPSLMHWARSLGTNRNRARALLFAAARELFEETGTLLATHSDGTPIPDATQYHPQRLALESHRLSLSQVLARHDLTLRSEWLRPSTRWVSPETDEKRFDMFAFVAVQPPGQEPDGNTREAASTGWFSPSLILDGWRAGLIRLVIPTWAQLLILSRFDCVRDVLEFLRRADMTPIIGDPVDDPRFEEFYSFTPPERF, MSTQEDFLKRLESVTSRLEAIAGQKPALAPKPTNLGGPSAYSLHFFFALQFYFSSSPPTSTMDSLYYSAPRPFNKYPRGYRPVTDSTQDLRSFGGGLRPSSSWSSFPQQVVIDQRSATLPHFPSSCVSPVSPTSPVDRNTNYWTAEEPPRSRRPIRSESNSTLFDNNFSPRELSPLSVASEYCNNPQPASMYGHRSVQSPVPAFQDAPPRGYDNVPPPQSYKQPTHPSPSQRETDFLRNLQRQKAEAHNMSSSWYAGDQSSRQTDFGTLPSPQHYNSNSSDHHPPRRLAKTQSDLSFDSLNNTYFNNTSNHTPSNTFLNHSTVDSHNNSSGQLHNSINNYTASTNGNQGHRLDGFFRNRVIEPNWMTDPPPPKSFREDYIIRNAPLNSNLNSDFERFRLEPTYREPRGNSLVSEQPNFRSYHNDEPTQEQPNPRYQRSSSNFMQQRDPSPVRSPPIISYAQQSNPFSFPNPINQVNYNQEDHSSRVSTGGYQDRRVAQAPKEATTNVYQNVPAAAAVNFREKERPTSQYLESNRNSAAFPNEPIKLTNDRVLRIHPHQQVQDQYHHHQMPEEPHYPQPHQPIQQSQRARIQSPLRDFARLTSPIREVAPQPYHPPQAQNQNQNPERIFSPVESKVFNRSGPTVINGFTSNRHTYNSHTDDFDSRNRRDSSQPPVAIIEPNINVHMPSDPMPYNKPHFGHGHGHSNGNNNVHSVKPTSHYSNPTFSPTSTFSPNSNYDNDNDSDLDIEEMARRALPRYLRDNEKTGRHRNLYGDNLHGILIKNPSLHRSSSKKVVFIDQNKASAAASAGDSGEVPAHVRAYDDAIEEPLANWSKLTDQLGGDLAAVKPKVLAMFASMRNYLWSAAGKSEPSAEEAQKMLTPVINLLGEINNFKDTKRKTPHWNHLNSVAEALPALGWVTVKKTPAPYVKEFIEAAQFYINPILREFKETDPRHVEWTKAWKAVFEEMQKFVRQVHTTGLVWNSAPGAAPDASASAPSAAAPSAPKAPAGPGGPPPPPPPPPADFFANIAPPPVDADKASRDALFASLNQGEGVTSRLKKVTADMQTHKNPNLRGTAVVPAAGASQGGSSPAKPAAPVRKPPHKELENGKQWIVEYFVNDPNIVLDVADKKQTVYIYRCENSVIKVNGKANSITLDGCKKTSVVFDALVAQCETVNCQSVQIQTLGELPTLSIQKTDGCQVYLSKVAQGCEIVTSKSSEMNISVQTNDDGDYSEFPVPEQFKTTFVNGKLVTVVSDIC, MSTRLTTLSHTSEGHRVSVHYGYDDKGRLTGERQTVENPETGELLWHHETGHAYNEQGLANRVTPDSLPPVEWLTYGSGYLAGMKLGGTPLLEFTRDRLHRETVRSFGSMAGSNAAYKLTSTYTPAGQLQSQHLNSLVYDRDYGWNDNGDLVRISGPRQTREYGYSATGRLESVRTLAPDLDIRIPYATDPAGNRLPDPELHPDSTLTVWPDNRIAEDAHYVYRHDEYGRLTEKTDRIPAGVIRTDDERTHHYHYDSQHRLVFYTRIQHGEPLVESRYLYDPLGRRMAKRVWRRERDLTGWMSLSRKPEVTWYGWDGDRLTTVQTDTTRIQTVYEPGSFTPLIRVETENGEREKAQRRSLAETLQQEGSENGHGVVFPAELVRLLDRLEEEIRADRVSSESRAWLAQCGLTVEQLARQVEPEYTPARKVHFYHCDHRGLPLALISEDGNTAWRGEYDEWGNQLNEENPHHLHQPYRLPGQQHDEESGLYYNRHRHYDPLQGRYITPDPIGLRGGWNMYQYPLNPIQVIDPMGLDAIENMTSGGLIYAVSGVPGLIAANSITNSAYQFGYDMDAIVGGAHNGAADAMRHCYLMCRMTKTFGSTIADVIGKNHEAAGDRQGQPAKERIMDLKNNTVGIACGDFSAKCSDACIEKYNTGQLFGLDGIKADNPIKAKQGSSDASNYLEHHHHHH, MSTSGSGGGNTPDLSKENVASSPNANPKKNADTESSGGSKNNRQRRRSNTKGDGSNSRNGSRTNSVSNSKNQSNRKDWTDRKSFSQGGINVKSKSPGDDHKRTRSSNSQSAKRNARDSTRTMSQASNGEGLDYSDEYELDEPFSDSDDEDSRPKKPEKMSLTVARGRIRTLSGTVPVVGYSPRWGGPTMCVSCLEFFDLPEQISGFADHLLKEHKIVVSEMNLIVDPKRYIEHWRQRFAKESIDKIFPRIEPSEGDSYFGETDYYYLMSENVAEDRSLRQRLAMRRLEEALQCQQREREDTSFQLQCIFCRYNARGNRSKIIHHLYMIHHLNLGSPDNLVFVTEYIEHLKEKLHRNECIYCEKIFPDRNTLMDHMRKRNHREVNPKNHYYDKFYIINYLELGKRWLDVLAEDFEDTMPTFQDSDEEEEDNEWCEWQEDNLDADETRVVCLLCDASEDNAQSLLEHMKTTHEFDLLKNVSDDKLNSYQRLRLINYIRKQNYHADCWVCQKTEFENPLALQKHILEHKPLSHLPDASIWDTEENLVPIFGNDHFLWMLESILEENEITCSSDDEGESEERFSKLVLESKSNTVEGVIAEDLPELSELNEDDLNALM, MSTSLVDRLWYGQGRPLALLTPLAWLYRAVSESRRRKAWHARNESLPVPVVVVGNITAGGTGKSPLTASLVQCMNQHGWKPVILSRGYGGKSSQYPLLVADGTPAGVCGDEPLMLARATGCPVVVDPDRCRGARWALENGLGDVLICDDGLQHYRLPRDIELAVFDARRGTGNGAIIPVGPLREPVERLNSVDFVVLNGAEFPEAGETIESFAGVDHPEIHAMELVPSALVNLNSGETLSPEQLKGKPVRAVAGIGNPGRFFETLRNLGAHVNEVPFPDHHHFRPEDLASGALEWLVMTAKDAVKCHGFAPDNAWVLTVQARLSEPFEQHFLERLRASSGQLQTDISEESNHGLEHHHHHH, MSTSSHTVLLIQTSPRLDSRTWGDYESVTDALDALCKMFEDFLSKKSAAPVTYDVSQVYEFLDKLSDVSMMIFNRETGQYIGRTRAWIKQQVYEMMRGRCQHPEGGEKVIVGY, MSTVVEKSGEAKPGKVEVGVKLRGAEKVARIPVKIIPTEELPKKPDWIRVRIPVSPEVDRIKQLLRKHKLHSVCEEASCPNLGECFSGGTATFMIMGDICTRRCPFCDVGHGRPKPLDVDEPTNLAIAIADLRLKYVVITSVDRDDLRDGGAQHFADCLREIRKLSPGIQLETLVPDYRGRMDIALEITANEPPDVFNHNLETVPRLYRSSRPGSDFEWSLDLLQKFKQMVPHVPTKSGLMLGLGETDDEVIEVMQRMREHDIDMLTLGQYLQPSRNHLPVQRFVHPDTFAWFAEEGEKMGFKNVASGPLVRSSYHADQQAHGNKIG, MSVESSNQTTSLSSYLLKCAFSFGTAPPSLSPPSSTGSYEEADFSRFVQQNETGHKLTSYQSLANRDPCTIPDELHQEMKSLKKKEEAFKTSLCGFHRRGQKCAYGEKCKFAHSVHELRFPQTKRNHRNYKTVLCNNFSTTGHCKYGIRCQFIHRSMDSTSSNQSNETENITIDLNVQSDVFRAFALDSTSSLPNWHCSALLH
